Data on 9 molecules can be found in US20020164595, “Sequence specific DNA binding by p53” (published 2002).

In series [1] the target is T1, p53 wild-type (Homo sapiens, UniProt P04637 P04637:1-393). Nature of the series: pulldown. To be noted: chain copies: 4; label: 32P. The source says: FIG. 11A. […] For each sample, the control lane (C) contained 2% of the total DNA used in the binding reaction, and was composed of two fragments: 2.9 kb vector DNA fragment, and a fragment of 40 to 80 bp containing no insert (lane 9; XhoI plus Pst1 digest of pBluescript II SK+), the 10 bp consensus monomer sequence 5′-[…]-3′ (lane 5), or multimers of this sequence arranged as indicated (lanes 1 to 4, 6, to 8). Bound DNA from the IP is shown in the B lanes.
T1 sequence (P04637 whole entry, the tested form may be a part, one chain of several): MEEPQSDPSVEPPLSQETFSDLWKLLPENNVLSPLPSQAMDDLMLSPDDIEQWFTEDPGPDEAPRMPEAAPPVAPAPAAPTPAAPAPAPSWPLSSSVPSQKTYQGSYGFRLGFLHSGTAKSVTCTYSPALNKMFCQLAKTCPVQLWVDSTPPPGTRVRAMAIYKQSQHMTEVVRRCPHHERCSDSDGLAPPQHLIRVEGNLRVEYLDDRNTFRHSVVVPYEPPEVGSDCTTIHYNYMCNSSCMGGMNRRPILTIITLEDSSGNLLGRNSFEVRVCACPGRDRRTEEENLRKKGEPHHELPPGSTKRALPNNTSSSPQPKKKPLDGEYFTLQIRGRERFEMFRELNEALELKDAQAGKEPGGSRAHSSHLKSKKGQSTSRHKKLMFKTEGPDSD
To determine if the 10 bp consensus monomer could bind p53, a synthetic oligonucleotide (5′-[…]-3′) containing the consensus sequence was studied. Oligonucleotide duplexes were tested either directly or after cloning into plasmid vectors. […] Two variants of the consensus motif were also tested for binding. In the first, the two critical G:C bp's at position 4 and 6 of the monomer were substituted with A:T bp's (FIG. 10, synthetic oligonucleotides 1,2).

Series [2] concerns the target T1, p53 wild-type. In words: pulldown; monomer alone, not shown. The note with it: chain copies: 4.
The target in series [3] is T1, p53 wild-type. In words: pulldown. To be noted: chain copies: 4.

Substitutions are numbered along the chain they refer to.

B1: synthetic oligo 6 (cloned consensus dimer) (dsDNA)
DNA 1: TGCAGGAATTCGATAGGCATGTCTAGGCATGTCTATCAAGCTTATCGAT
DNA 2: ATCGATAAGCTTGATAGACATGCCTAGACATGCCTATCGAATTCCTGCA
Regarding B1, the binding result with p53 wild-type [1] is reported as “binds”.

B2: synthetic oligo 7 (cloned consensus dimer, inverted) (dsDNA)
DNA 1: B1 DNA 1 with G27A, T32C
DNA 2: B1 DNA 2 with A18G, C23T
For the molecule B2, the binding result with p53 wild-type [1] was “binds”.

B3: synthetic oligo 8 (cloned consensus dimer, inverted) (dsDNA)
DNA 1: B1 DNA 1 with G17A, T22C
DNA 2: B1 DNA 2 with A28G, C33T
For B3, the binding result in the series with p53 wild-type [1] was “binds”.

B4: synthetic oligo 9 (cloned monomer) (dsDNA)
DNA 1: TGCAGGAATTCGATAGGCATGTCTATCAAGCTTATCGAT
DNA 2: ATCGATAAGCTTGATAGACATGCCTATCGAATTCCTGCA
Regarding B4, in the series with p53 wild-type [1], the binding result is given as “no binding”.

B5: consensus monomer (dsDNA)
DNA 1: AGGCATGTCT
DNA 2: AGACATGCCT
Take B5: the binding result in the series with p53 wild-type [2] is listed as “no binding”.

B6: synthetic oligo 1 (A:T-substituted monomer) (dsDNA)
DNA 1: AGGAATTCCT
DNA 2: AGGAATTCCT
In the case of B6, the binding result with p53 wild-type [3] is “no binding”.

B7: synthetic oligo 5 (direct half-site repeats) (dsDNA)
DNA 1: AGGCAAGGCAAGGCAAGGCA
DNA 2: TGCCTTGCCTTGCCTTGCCT
As to B7, the binding result in the series with p53 wild-type [3] is reported as “no binding”.

B8: synthetic oligo 2 (A:T-substituted dimer) (dsDNA)
DNA 1: AGGAATTCCTAGGAATTCCT
DNA 2: AGGAATTCCTAGGAATTCCT
As for B8, the binding result in the series with p53 wild-type [3] is given as “no binding”.

B9: fragment A subfragment 5 (dsDNA)
DNA 1: AGTGAAAGCAGGTAGATTGCCTTGCCTGGACTTGCCTGGCCTTGCCTTTTCTTTC
DNA 2: GAAAGAAAAGGCAAGGCCAGGCAAGTCCAGGCAAGGCAATCTACCTGCTTTCACT
On to B9, for which the binding result in the series with p53 wild-type [3] (label: 32P) is on record as “binds”.
